Experimental data: patent US20130123349A1 (US Dept. of Health and Human Services, published 2013)

Assays:
[1] = target: T1, soluble collagen type I (pepsin-digested, non-fibrillar, triple helical; BD Biosciences) (human, UniProt P02452 179-1192; P08123 91-1104); assay: SPR, global two-state binding model, immobilized soluble collagen type I
T1 construct: also called collagen I; monomeric type I collagen

[2] = target: T1, soluble collagen type I …; assay: SPR, C-terminus-2 (5 to 250 nM) over immobilized soluble collagen type I, two-state model
[3] = target: T1, soluble collagen type I …; assay: SPR, […]; concentration not given
[4] = target: T2, heat-denatured soluble collagen type I (90 min at 98 °C) (human, UniProt P02452 179-1192; P08123 91-1104); assay: SPR, Aegyptin over immobilized heat-denatured collagen type I, two-state model; Ka1
T2 construct: also called Collagen denatured; heat-denatured collagen
T2 sequence (P02452 179-1192, chain 1 of 2): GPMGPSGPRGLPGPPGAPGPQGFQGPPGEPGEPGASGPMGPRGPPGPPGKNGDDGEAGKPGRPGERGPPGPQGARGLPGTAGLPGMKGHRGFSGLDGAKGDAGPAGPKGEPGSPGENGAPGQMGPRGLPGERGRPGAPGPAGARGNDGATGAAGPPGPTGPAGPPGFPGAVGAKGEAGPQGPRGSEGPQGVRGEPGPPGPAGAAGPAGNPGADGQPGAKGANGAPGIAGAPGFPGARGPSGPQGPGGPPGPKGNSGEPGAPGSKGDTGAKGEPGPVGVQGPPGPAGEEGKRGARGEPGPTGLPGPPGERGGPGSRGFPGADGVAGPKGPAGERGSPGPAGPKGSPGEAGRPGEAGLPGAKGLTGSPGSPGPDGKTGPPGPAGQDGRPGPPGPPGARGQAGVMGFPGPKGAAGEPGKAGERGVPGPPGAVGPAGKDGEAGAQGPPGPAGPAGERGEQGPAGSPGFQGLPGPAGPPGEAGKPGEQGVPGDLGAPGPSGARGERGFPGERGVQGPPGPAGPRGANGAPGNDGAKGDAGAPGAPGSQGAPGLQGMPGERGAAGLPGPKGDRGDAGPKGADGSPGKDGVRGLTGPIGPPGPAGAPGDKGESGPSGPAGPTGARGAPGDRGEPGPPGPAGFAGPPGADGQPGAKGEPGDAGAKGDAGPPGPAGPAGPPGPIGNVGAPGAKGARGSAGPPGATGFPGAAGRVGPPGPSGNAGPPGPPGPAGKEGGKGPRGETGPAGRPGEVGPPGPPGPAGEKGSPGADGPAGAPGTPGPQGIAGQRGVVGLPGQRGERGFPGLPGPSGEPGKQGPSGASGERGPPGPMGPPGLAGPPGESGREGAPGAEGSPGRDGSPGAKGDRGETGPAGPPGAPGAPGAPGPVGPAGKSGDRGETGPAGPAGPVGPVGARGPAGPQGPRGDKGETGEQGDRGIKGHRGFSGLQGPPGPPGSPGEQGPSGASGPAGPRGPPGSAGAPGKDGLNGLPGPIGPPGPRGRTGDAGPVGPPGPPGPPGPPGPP
T2 sequence (P08123 91-1104, chain 2 of 2): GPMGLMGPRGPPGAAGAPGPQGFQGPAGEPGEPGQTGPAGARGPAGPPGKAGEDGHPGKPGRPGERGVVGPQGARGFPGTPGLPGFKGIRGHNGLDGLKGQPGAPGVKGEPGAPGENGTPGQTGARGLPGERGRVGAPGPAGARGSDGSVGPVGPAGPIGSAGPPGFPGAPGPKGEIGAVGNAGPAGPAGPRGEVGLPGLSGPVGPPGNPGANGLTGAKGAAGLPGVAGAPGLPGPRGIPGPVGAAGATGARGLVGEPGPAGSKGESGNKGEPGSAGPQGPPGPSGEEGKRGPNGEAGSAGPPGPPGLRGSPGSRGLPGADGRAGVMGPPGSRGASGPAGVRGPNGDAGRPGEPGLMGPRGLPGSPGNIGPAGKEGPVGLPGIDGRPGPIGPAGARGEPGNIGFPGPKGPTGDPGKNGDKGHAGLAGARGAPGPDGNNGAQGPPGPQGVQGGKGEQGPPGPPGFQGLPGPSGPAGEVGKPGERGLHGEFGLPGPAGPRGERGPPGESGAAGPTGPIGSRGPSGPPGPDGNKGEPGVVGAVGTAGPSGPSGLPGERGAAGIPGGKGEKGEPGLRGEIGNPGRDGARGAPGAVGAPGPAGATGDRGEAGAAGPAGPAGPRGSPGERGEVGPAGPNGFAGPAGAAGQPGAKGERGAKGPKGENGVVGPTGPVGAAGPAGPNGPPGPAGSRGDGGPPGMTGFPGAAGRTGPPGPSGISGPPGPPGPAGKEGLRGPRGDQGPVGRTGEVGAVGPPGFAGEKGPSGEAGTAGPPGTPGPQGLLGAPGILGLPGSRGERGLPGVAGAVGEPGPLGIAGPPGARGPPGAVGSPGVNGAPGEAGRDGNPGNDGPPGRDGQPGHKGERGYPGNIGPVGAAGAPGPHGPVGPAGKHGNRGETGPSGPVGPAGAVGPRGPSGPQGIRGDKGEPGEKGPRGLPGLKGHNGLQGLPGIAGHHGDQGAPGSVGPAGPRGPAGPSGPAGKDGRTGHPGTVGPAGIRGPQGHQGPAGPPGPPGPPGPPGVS

[5] = target: T3, soluble collagen type III (pepsin-digested, non-fibrillar; BD Biosciences) (human, UniProt P02461 168-1196); assay: ELISA, inhibition of vWf (3 nM) binding to coated soluble collagen type III; competitor vWf
T3 construct: also called collagen III; soluble collagen III
T3 sequence: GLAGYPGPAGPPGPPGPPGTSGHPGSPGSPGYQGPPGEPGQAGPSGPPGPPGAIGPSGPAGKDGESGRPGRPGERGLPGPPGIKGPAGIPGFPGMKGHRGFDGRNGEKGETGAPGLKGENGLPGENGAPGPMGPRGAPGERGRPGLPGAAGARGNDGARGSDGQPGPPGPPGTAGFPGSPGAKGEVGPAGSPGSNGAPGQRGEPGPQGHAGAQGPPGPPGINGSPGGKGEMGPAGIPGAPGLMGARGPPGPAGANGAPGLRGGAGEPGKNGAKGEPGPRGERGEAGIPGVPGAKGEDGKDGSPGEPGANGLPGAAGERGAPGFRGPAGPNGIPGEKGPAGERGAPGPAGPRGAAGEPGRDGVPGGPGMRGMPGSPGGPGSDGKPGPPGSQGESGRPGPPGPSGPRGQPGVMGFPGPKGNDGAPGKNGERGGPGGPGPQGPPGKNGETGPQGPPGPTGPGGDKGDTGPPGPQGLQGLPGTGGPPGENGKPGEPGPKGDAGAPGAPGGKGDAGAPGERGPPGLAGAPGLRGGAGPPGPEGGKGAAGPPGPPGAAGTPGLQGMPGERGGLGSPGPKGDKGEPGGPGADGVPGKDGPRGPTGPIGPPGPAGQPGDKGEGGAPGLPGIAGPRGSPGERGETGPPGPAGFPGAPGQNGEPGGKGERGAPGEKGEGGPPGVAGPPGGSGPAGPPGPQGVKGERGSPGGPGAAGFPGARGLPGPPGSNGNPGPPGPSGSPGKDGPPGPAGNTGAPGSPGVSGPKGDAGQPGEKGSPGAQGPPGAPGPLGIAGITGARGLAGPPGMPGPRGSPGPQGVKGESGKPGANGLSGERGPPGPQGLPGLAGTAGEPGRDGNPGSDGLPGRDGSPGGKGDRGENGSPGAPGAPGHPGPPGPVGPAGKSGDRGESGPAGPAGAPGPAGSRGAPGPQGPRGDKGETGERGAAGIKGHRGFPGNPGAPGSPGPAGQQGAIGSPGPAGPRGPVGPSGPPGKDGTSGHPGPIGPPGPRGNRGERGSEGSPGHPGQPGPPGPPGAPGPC

[6] = target: T1, soluble collagen type I …; assay: SPR at 15-40 °C, van't Hoff analysis, Aegyptin over immobilized collagen type I; value (±SE)
[7] = target: T1, soluble collagen type I …; assay: SPR, Aegyptin over immobilized soluble collagen type I, 180 s at 30 µl/min, two-state model; Ka1

T1 sequence (P02452 179-1192 limits assumed, chain 1 of 2): as the sequence (P02452 179-1192, chain 1 of 2) above
T1 sequence (P08123 91-1104 limits assumed, chain 2 of 2): as the sequence (P08123 91-1104, chain 2 of 2) above

B1: C-terminus-2 of Aegyptin (137 aa) (other)
chain: GGDEGEDNAEDSKGSEKNDPADTYRQVVALLDKDTKVDHIQSEYLRSALNNDLQSEVRVPVVEAIGRIGDYSKIQGCFKSMGKDVKKVISEEEKKFKSLMSKKKSEYQCSEDSFAAAKSKLSPITSKIKSCVSSKGR
notes: also called C-terminal-2; C-terminus 2 domain
B1 gave a Kd [1] of 60.9 nM and a Kd [2] of roughly 60 nM.

B2: C-terminus 1 of Aegyptin (113 aa) (other)
chain: RQVVALLDKDTKVDHIQSEYLRSALNNDLQSEVRVPVVEAIGRIGDYSKIQGCFKSMGKDVKKVISEEEKKFKSCMSKKKSEYQCSEDSFAAAKSKLSPITSKIKSCVSSKGR
B2: no binding [3].

B3: recombinant Aegyptin (other)
chain: RPMPEDEEPVAEGGDDDASGESEGEEETTDDAGGDGGEEENEGEEHAGDKDAGGEDTGKEENTGHDDAGEEDAGEEDAGEEDAGEEDAGEEDAEKEEGEKEDAGDDAGSDDGEEDSTGGDEGEDNAEDSKGSEKNDPADTYRQVVALLDKDTKVDHIQSEYLRSALNNDLQSEVRVPVVEAIGRIGDYSKIQGCFKSMGKDVKKVISEEEKKFKSCMSKKKSEYQCSEDSFAAAKSKLSPITSKIKSCVSSKGRHHHHHH
In the case of B3, the kon [4] is reported as 674000 M⁻¹ s⁻¹, the IC50 [5] is reported as 50 nM and the “ΔS°” value [6] is reported as 95 J/(K * mol). For the same binder, the kon [7] was 3.63e+06 M⁻¹ s⁻¹.
